Target: RBD-Fc (secreted recombinant receptor-binding domain of SARS-CoV-2 spike) (SARS-CoV-2, UniProt P0DTC2)
Assay: immunoassay on cellulose filter paper discs

B1: Ty1-CBD bifunctional fusion protein (nanobody Ty1 fused to a cellulose-binding domain) (VHH)
VHH: QVQLVETGGGLVQPGGSLRLSCAASGFTFSSVYMNWVRQAPGKGPEWVSRISPNSGNIGYTDSVKGRFTISRDNAKNTLYLQMNNLKPEDTALYYCAIGLNLSSSSVRGQGTQVTVSS
  binding result: binds

B2: Ty1 without CBD module (control protein) (VHH)
VHH: B1 VHH
  binding result: binds

Source: article doi:10.1101/2021.09.01.458653 (bioRxiv, 2021)
